The target in test [1] is T1, Human CTLA-4-Fc (Chimerigen, CHI-HF-210A4-M001) (human, UniProt P16410 37-162).
T1 construct: Bought protein; also called hCTLA-4; not shown: Fc part of the bought fusion
Nature of the test: SPR (Biacore T200), human CTLA-4-Fc captured by anti-human IgG-Fc, mutein as analyte, 1:1 fit.

The target in test [2] is T2, human CTLA-4 on transfected CHO-K1 cells (human, UniProt P16410 36-223).
T2 construct: whole, on cells; also called CHO: CTLA-4; human CTLA-4 expressing CHO cells
T2 sequence (P16410 36-223): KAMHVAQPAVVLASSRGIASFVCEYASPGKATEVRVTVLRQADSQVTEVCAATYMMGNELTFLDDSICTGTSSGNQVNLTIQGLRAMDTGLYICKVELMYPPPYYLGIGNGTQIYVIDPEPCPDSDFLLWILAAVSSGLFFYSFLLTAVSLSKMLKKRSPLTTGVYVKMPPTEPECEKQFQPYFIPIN
Nature of the test: FACS competition: inhibition of 20 nM biotinylated CD80/B7.1 binding to CTLA-4-transfected CHO-K1 cells.

For test [3], the target named is T2, human CTLA-4 on transfected CHO-K1 cells. Kind of test: FACS competition on human CTLA-4-transfected CHO cells; blocked ligand 20 nM biotinylated human B7.1, streptavidin-phycoerythrin.
Test [4] shares this target. Nature of the test: FACS competition on human CTLA-4-transfected CHO cells; blocked ligand 20 nM biotinylated human B7.1 Fc, detected with streptavidin-PE.
Test [5] shares this target. Kind of test: FACS competition: inhibition of 20 nM B7.1 Fc-bio binding to human CTLA-4-transfected CHO cells.

From patent publication US20160362460A1 (Pieris, published 2016) come the findings set out here.

T1 sequence (P16410 37-162 limits assumed, change not shown): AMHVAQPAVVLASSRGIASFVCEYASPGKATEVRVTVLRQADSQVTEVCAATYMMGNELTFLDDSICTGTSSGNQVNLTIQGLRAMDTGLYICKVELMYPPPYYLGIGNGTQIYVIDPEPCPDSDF

B1: lipocalin mutein SEQ ID NO: 62 (designed binder)
chain: QDSTSDLIPAPPLSKVPLQQNFQDNQFQGKWYVVGLAGNRILRDDQHPMPMYATIYELKGDKSYNVTSVISSHKKCLYPIATFVPGSQPGEFTLGNIKSYGDKWSYLVRVVSTDYNQYAVVFFKHADSNYESFSITIYGRTKELASELKENFIRFSKSLGLPENHIVFPVPIDQCIDG
In test [1], B1 showed a Kd of 0.36 nM, a koff of 0.00027 s⁻¹ and a kon of 750000 M⁻¹ s⁻¹. In test [2], a half-maximal response (EC50) required 6 nM.

B2: lipocalin mutein SEQ ID NO: 61 (designed binder)
chain: QDSTSDLIPAPPLSKVPLQQNFQDNQFQGKWYVVGLAGNRILRLDQHPMPMYATIYELKGDKSYNVTSVISSHKKCLYPIATFVPGSQPGEFTLGNIRSYGDKTSYLVRVVSTDYNQYAVVFFKHADTNYESFSITIYGRTKELASELKENFIRFSKSLGLPENHIVFPVPIDQCIDG
For B2, in test [1], the Kd stood at 0.94 nM, the koff was found to be 0.00072 s⁻¹ and the kon was 770000 M⁻¹ s⁻¹. The same molecule gave an EC50 in test [2] of 9.3 nM.

B3: lipocalin mutein SEQ ID NO: 94 (designed binder)
chain: QDSTSDLIPAPPLSKVPLQQNFQDNQFQGKWYVVGLAGNRILRQDQHPMPMYATIYELKEDKSYQVTSVISSHKKCLYPIATFVPGSQPGEFTLGNIKSYGDKVSYLVRVVSTNYNQHAMVFFKYADRNFESFSITLYGRTKELTSELKENFIRFSKSLGLPENHIVFPVPIDQCIDG
In test [1], B3 yielded a Kd of 1.8 nM, a koff of 0.00061 s⁻¹ and a kon of 340000 M⁻¹ s⁻¹. For the same molecule, the “IC50 (read off the curve)” value in test [3] lay in the range of 10 to 20 nM. The EC50 in test [2] turned out to be 13.4 nM.

B4: CTLA-4 specific lipocalin mutein (SEQ ID NO: 4) (designed binder)
chain: QDSTSDLIPAPPLSKVPLQQNFQDNQFHGKWYVVGLAGNRILRDDQHPMPMYATIYELKGDKSYNVTSVISSHKKCLYPIATFVPGSQPGEFTLGNIKSYGDKWSYLVRVVSTDYNQYAVVFFKHADSNYESFSITIYGRTKELASELKENFIRFSKSLGLPENHIVFPVPIDQCIDG
notes: hNGAL (lipocalin 2) mutein
In test [1], B4 displayed a Kd of 0.35 nM, a koff of 0.00022 s⁻¹ and a kon of 640000 M⁻¹ s⁻¹. Also, in test [4], the “IC50 (read off the curve)” value was roughly 20 nM. Besides, the IC50 in test [5] was found to be 23 nM. Also, in test [2], the EC50 came out at 7.6 nM.

B5: lipocalin mutein SEQ ID NO: 65 (designed binder)
chain: QDSTSDLIPAPPLSKVPLQQNFQDNQFQGKWYVVGLAGNRILRDDQHPMPMYATIYELKEDKSYQVTSVISSHKKCLYPIATFVPGSQPGEFTLGNIKSYGDKWSYLVRVVSTNYNQHAMVFFKHADSNYESFSITLYGRTKELTSELKENFIRFSKSLGLPENHIVFPVPIDQCIDGSAWSHPQFEK
In test [1], B5 displayed a Kd of 0.62 nM, a koff of 0.00044 s⁻¹ and a kon of 710000 M⁻¹ s⁻¹. The molecule also returned an EC50 in test [2] of 7.8 nM.

B6: lipocalin mutein SEQ ID NO: 66 (designed binder)
chain: QDSTSDLIPAPPLSKVPLQQNFQDNQFQGKWYVVGLAGNRILRLDQHPMPMYATIYELKEDKSYQVTSVISSHKKCLYPIATFVPGSQPGEFTLGNIRSYGDKTSYLVRVVSTNYNQHAMVFFKHADTNYESFSITLYGRTKELTSELKENFIRFSKSLGLPENHIVFPVPIDQCIDGSAWSHPQFEK
Regarding B6, in test [1], the Kd was 1.8 nM, the koff worked out at 0.0013 s⁻¹ and the kon worked out at 750000 M⁻¹ s⁻¹. For the same molecule, the EC50 in test [2] was determined as 7.4 nM.
